In patent US20200102347A1 (AUCTUS BIOLOGIES, published 2020):
No end group written: not given here. *: point of attachment. RhodamineB = CCN(CC)c1ccc2c(-c3ccccc3C(=O)*)c3ccc(=[N+](CC)CC)cc-3oc2c1

B1: NativeRPtag(large)_with_Tags_and_Cys (other)
chain: MGSSCHHHHHHSQDPNSSSMKEGKTIGLVISTLNNPFFVTLKNGAEEKAKELGYKIIVEDSQNDSSKELSNVEDLIQQKVDVLLINPVDSDAVVTAIKEANSKNIPVITIDRSANGGDVVSHIASDNVKGGEMAAEFIAKALKGKGNVVELEGIPGASAARDRGKGFDEAIAKYPDIKIVAKQAADFDRSKGLSVMENILQAQPKIDAVFAQNDEMALGAIKAIEAANRQGIIVVGFDGTEDALKAIKEGKMAATIAQQPALMGSLGVEMADKYLK
notes: Unlabeled in anisotropy assays; coupled through the engineered N-terminal Cys to SulfoLink agarose or maleimide plates in column, pull-down and ELISA assays
B2: RP-Tag Small (Sequence 3: SEQ ID NO:13 with a glycine serine tail) (peptide)
peptide: RhodamineB-GEKIPNFIPAELKLITKENVQGS
modifications: also: N-terminal label: Rhodamine B / Rhodamine 6B
notes: also called RP-small peptide

Experiments:
[1] = target: T1, NativeRPtag(large)_with_Tags_and_Cys (Thermoanaerobacter tengcongensis); experiment: fluorescence anisotropy; MeOH (20%); MeOH (20%)
T1 chain: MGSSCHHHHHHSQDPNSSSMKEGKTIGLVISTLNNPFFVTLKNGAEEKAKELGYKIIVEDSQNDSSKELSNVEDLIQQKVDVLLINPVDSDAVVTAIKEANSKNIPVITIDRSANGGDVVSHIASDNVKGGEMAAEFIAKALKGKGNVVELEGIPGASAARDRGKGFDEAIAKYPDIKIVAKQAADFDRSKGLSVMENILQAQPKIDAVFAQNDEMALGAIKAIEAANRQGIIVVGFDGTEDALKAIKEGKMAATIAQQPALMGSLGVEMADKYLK

[2] = target: T1, NativeRPtag(large)_with_Tags_and_Cys …; experiment: fluorescence anisotropy; Tween20 (2%)
[3] = target: T1, NativeRPtag(large)_with_Tags_and_Cys …; experiment: fluorescence anisotropy; TritonX-100 (2%)
[4] = target: T1, NativeRPtag(large)_with_Tags_and_Cys …; experiment: fluorescence anisotropy; ribose (3M)
[5] = target: T1, NativeRPtag(large)_with_Tags_and_Cys …; experiment: fluorescence anisotropy; NaCl (3M)
[6] = target: T1, NativeRPtag(large)_with_Tags_and_Cys …; experiment: fluorescence anisotropy; 50 mM Tris pH 8.0, 0.005% Tween 20, no additive (Table 2)
[7] = target: T1, NativeRPtag(large)_with_Tags_and_Cys …; experiment: fluorescence anisotropy; No Additive; No Additive; 100 mM Tris pH 8.0, 0.005% Tween 20 (Table 3)
[8] = target: T1, NativeRPtag(large)_with_Tags_and_Cys …; experiment: fluorescence anisotropy; glycerol (20%)
[9] = target: T1, NativeRPtag(large)_with_Tags_and_Cys …; experiment: fluorescence anisotropy; MgCl2 (3M)
[10] = target: T1, NativeRPtag(large)_with_Tags_and_Cys …; experiment: fluorescence anisotropy; KCl (3M)
[11] = target: T1, NativeRPtag(large)_with_Tags_and_Cys …; experiment: fluorescence anisotropy; sorbitol (3M)
[12] = target: T1, NativeRPtag(large)_with_Tags_and_Cys …; experiment: pull-down with RPtag(large) resin
[13] = target: T1, NativeRPtag(large)_with_Tags_and_Cys …; experiment: fluorescence anisotropy; NiCl2 (100 mM)
[14] = target: T1, NativeRPtag(large)_with_Tags_and_Cys …; experiment: fluorescence anisotropy; DTT (100 mM)
[15] = target: T1, NativeRPtag(large)_with_Tags_and_Cys …; experiment: fluorescence anisotropy, competitor chase; 50 mM Tris pH 8.0, 0.005% Tween 20, no additive (Table 2)
[16] = target: T1, NativeRPtag(large)_with_Tags_and_Cys …; experiment: fluorescence anisotropy; MnSO4 (10 mM)
[17] = target: T1, NativeRPtag(large)_with_Tags_and_Cys …; experiment: fluorescence anisotropy; NH4SO4 (3M)
[18] = target: T1, NativeRPtag(large)_with_Tags_and_Cys …; experiment: fluorescence anisotropy; DMSO (20%); DMSO (20%)
[19] = target: T1, NativeRPtag(large)_with_Tags_and_Cys …; experiment: fluorescence anisotropy, buffer additive screen
[20] = target: T1, NativeRPtag(large)_with_Tags_and_Cys …; experiment: fluorescence anisotropy; EtOH (20%); EtOH (20%)
[21] = target: T1, NativeRPtag(large)_with_Tags_and_Cys …; experiment: fluorescence anisotropy; acetone (20%)
[22] = target: T1, NativeRPtag(large)_with_Tags_and_Cys …; experiment: fluorescence anisotropy; PG (50%)
[23] = target: T1, NativeRPtag(large)_with_Tags_and_Cys …; experiment: fluorescence anisotropy; BME (10%)
[24] = target: B1; experiment: fluorescence anisotropy
[25] = target: B1; experiment: fluorescence anisotropy, competitor chase
[26] = target: B1; experiment: fluorescence anisotropy, association kinetics
[27] = target: B1; experiment: calculated from koff and Kd
[28] = target: B1; experiment: fluorescence anisotropy kinetics
[29] = target: T2, MaturePDGF-β_NterminalPeptide; experiment: fluorescence anisotropy, 20 nM rhodamine PDGF-β N-terminal peptide
T2 construct: an N-terminal G was added and is left out of the numbering; also called PDGF-β peptide
T2 peptide: RhodamineB-GSLGSLTIAEPAMIAE
Procedure: (§1) After the incubation, fluorescence anisotropy was measured, and the resultant curves were fit with the equation f=y0+(ymax−y0)*(Ptot+x+Kd−sqrt((Ptot+x+Kd)\hat{ }2−4*Ptot*x))/(2*Ptot), where y0 is the baseline anisotropy, ymax is the maximum anisotropy, Ptot is the fixed concentration of labeled peptide used, x is the variable concentration of protein used, and Kd is the measured Kd. […] Buffer was 50 mM Tris pH 8.0, 0.005% Tween20.

native RPtag(small) [30] = target: T3, native RPtag(small) (Thermoanaerobacter tengcongensis, N-terminal rhodamine); experiment: fluorescence anisotropy after a 15 min 121 C autoclave cycle of RP-tag (large); RP-tag (large) autoclaved 15 min at 121 C before the measurement
T3 construct: Synthetic peptide
T3 peptide: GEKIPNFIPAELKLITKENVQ

native RPtag(small) [31] = target: T3, native RPtag(small); experiment: fluorescence anisotropy, 1 nM rhodamine peptide
Procedure: (§2) Kd's were calculated according to the equation f=y0+(ymax−y0)*(Ptot+x+Kd−sqrt((Ptot+x+Kd)\hat{ }2−4*Ptot*x))/(2*Ptot), where y0 is the baseline anisotropy, ymax is the maximum anisotropy, Ptot is the fixed concentration of labeled peptide used, x is the variable concentration of protein used, and Kd is the measured Kd.

native RPtag(small) [32] = target: T3, native RPtag(small); experiment: fluorescence anisotropy
Procedure: as §2

native RPtag(small) [33] = target: T3, native RPtag(small); experiment: fluorescence anisotropy; 1 nM rhodamine native RPtag (small), RPtag (large) titrated
Procedure: as §2

[34] = target: B2; experiment: fluorescence anisotropy, 50 nM Rhodamine B RP-Tag Small
Procedure: (§3) Anisotropy was then measured, and a Kd calculated by fitting the data to the equation f=y₀+(yₘₐₓ−y₀)*(Pₜₒₜ+x+Kd−sqrt((Pₜₒₜ+x+Kd)\hat{ }2-4*Pₜₒₜ*x))/(2*Pₜₒₜ), where y₀ is the baseline anisotropy, yₘₐₓ is the maximum anisotropy, Pₜₒₜ is the fixed concentration of labeled peptide used, x is the variable concentration of protein used, and Kd is the measured Kd.

RPtag(small) Nd2, Cd4 = target: T4, RPtag(small) Nd2, Cd4 (Thermoanaerobacter tengcongensis); experiment: fluorescence anisotropy; 2 nM rhodamine Nd2Cd4, unlabeled RPtag large variant titrated; bar of Ka = 1/Kd, right axis
T4 peptide: RhodamineB-KIPNFIPAELKLITK
Procedure: as §1

[35] = target: B2; experiment: fluorescence anisotropy; 50 nM N-terminal Rhodamine B RP-Tag Small, RP-Tag Large titrated; 50 mM Tris pH 8.0, 150 mM NaCl, 10 mM 2-mercaptoethanol, 0.005% Tween 20
Procedure: as §3

RPtag(small) l14a = target: T5, RPtag(small) l14a (Thermoanaerobacter tengcongensis, N-terminal rhodamine); experiment: fluorescence anisotropy; 1 nM rhodamine RPtag small peptide, unlabeled RPtag large titrated, 1 h; 50 mM Tris pH 8.0, 0.005% Tween20; bar of Ka = 1/Kd
T5 peptide: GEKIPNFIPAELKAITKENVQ
Procedure: (§4) Resultant curves were fit with the equation f=y0+(ymax−y0)*(Ptot+x+Kd−sqrt((Ptot+x+Kd)\hat{ }2−4*Ptot*x))/(2*Ptot), where y0 is the baseline anisotropy, ymax is the maximum anisotropy, Ptot is the fixed concentration of labeled peptide used, x is the variable concentration of protein used, and Kd is the measured Kd. […] Buffer was 50 mM Tris pH 8.0, 0.005% tween20.

RPtag(small) l14k = target: T6, RPtag(small) l14k (Thermoanaerobacter tengcongensis, N-terminal rhodamine); experiment: as above
T6 construct: also called L14K RPtag(small)
T6 peptide: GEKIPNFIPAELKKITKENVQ
Procedure: as §4

Bovine Serum Albumin = target: T7, Bovine Serum Albumin (bovine, UniProt P02769 25-607); experiment: fluorescence anisotropy; 50 nM N-terminal Rhodamine B RP-Tag Small, BSA titrated
T7 construct: also called BSA
T7 sequence (P02769 25-607 limits assumed): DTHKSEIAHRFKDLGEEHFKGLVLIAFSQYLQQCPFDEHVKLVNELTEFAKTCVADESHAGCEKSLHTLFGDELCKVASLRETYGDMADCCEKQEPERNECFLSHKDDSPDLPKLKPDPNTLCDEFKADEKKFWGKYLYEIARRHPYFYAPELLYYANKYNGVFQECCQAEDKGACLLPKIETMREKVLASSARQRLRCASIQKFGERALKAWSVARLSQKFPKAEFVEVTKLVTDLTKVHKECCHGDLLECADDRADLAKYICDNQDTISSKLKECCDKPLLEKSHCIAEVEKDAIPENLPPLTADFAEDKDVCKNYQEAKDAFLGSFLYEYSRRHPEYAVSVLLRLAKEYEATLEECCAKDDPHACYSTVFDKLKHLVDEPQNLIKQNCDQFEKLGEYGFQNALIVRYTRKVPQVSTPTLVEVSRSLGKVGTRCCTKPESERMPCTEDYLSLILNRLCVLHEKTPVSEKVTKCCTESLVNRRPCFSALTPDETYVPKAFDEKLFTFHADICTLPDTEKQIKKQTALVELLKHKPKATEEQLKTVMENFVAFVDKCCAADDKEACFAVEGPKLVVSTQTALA
Procedure: as §3

Which results are given for PAELKLITK (modifications not checked) [RPtag(small) Nd8, Cd4]?
Kd [1]: 34 nM; Kd [2]: 45 nM; Kd [3]: 180 nM; Kd [4]: 42 nM; Kd [5]: 0.15 nM; Kd [6]: 14 nM; Kd [7]: 14 nM; Kd [8]: 27 nM; Kd [9]: 240 nM; Kd [10]: 0.066 nM; Kd [11]: 16 nM; resin binding capacity [12]: 200 nmol/mL; Kd [13]: 42 nM; Kd [14]: 33 nM; koff [15]: > 0.0333 s⁻¹; Kd [16]: 160 nM; Kd [17]: 2.8 nM; Kd [18]: 140 nM; fold increase of affinity with kosmotropic salts (NaCl, KCl) [19]: > 100 fold; Kd [20]: 733 nM; Kd [21]: 22 nM; Kd [22]: 4600 nM; Kd [23]: 740 nM

With RhodamineB-GEKIANFIPAELKLITKENVQ [RPtag(small) p5a] as the binder, how does the Kd [24] read?
The Kd was 0.23 nM.

And the koff [25]?
Its koff is 0.0004 s⁻¹.

What about the “Keq (S-S*)” value [26] of the same binder?
Its value is 1.8.

What about the “kf (S to S*)” value [26] of the same binder?
Its value is 0.093 min⁻¹.

And the “kr (S* to S)” value [26]?
Its value is 0.052 min⁻¹.

What about the kon [27] of the same binder?
Its kon is 1.83e+06 M⁻¹ s⁻¹.

What about the “fold increase of kon and koff against native” value [28] of the same binder?
Its value is roughly 7 fold.

For B1, which Kd [29] is on record?
Its Kd is 7300 nM.

What about the Kd (native RPtag(small) [30]) of the same binder?
Its Kd is 53 nM.

And the Kd (native RPtag(small) [31])?
Its Kd is 0.2 nM.

And the “fold better Kd than anti-6xHis/6xHis” value (native RPtag(small) [32])?
The value was roughly 30 fold.

And the “fold selectivity over BSA” value (native RPtag(small) [32])?
The value was greater than 50000 fold.

What about the “EC50 (read off the curve)” value (native RPtag(small) [33]) of the same binder?
The value was roughly 0.8 nM.

And the Kd [34]?
The Kd was 8 nM.

Does B1 bind (RPtag(small) Nd2, Cd4)?
Result: binds

And the “EC50 (read off the curve)” value [35]?
The value was roughly 30 nM.

Does B1 bind (RPtag(small) l14a)?
Result: binds

Does B1 bind (RPtag(small) l14k)?
Result: binds

Does B2 bind (Bovine Serum Albumin)?
Result: no binding
